According to paper PMC8528861, “Structural and functional analysis of target recognition by the lymphocyte adaptor protein LNK” (Nature Communications, 2021):

How the values were obtained:
[1] = molecular target: M. musculus LNK SH2 domain (residues 324–446), wild type (mouse) (UniProt O09039); experiment: SPR; competition: biotinylated IL6ST pY757 peptide immobilised on a streptavidin chip; 0.1–0.5 μM WT LNK SH2 domain pre-incubated with phosphopeptide and flowed over; 10 mM HEPES pH 7.4, 150 mM NaCl, 3.4 mM EDTA, 0.005% Tween 20; response normalised to LNK only, IC50 fit
[2] = molecular target: biotinylated JAK2 pY813 peptide; experiment: SPR; direct binding: biotinylated JAK2 pY813 immobilised on a streptavidin chip; LNK and SH2B SH2 domains flowed over for 420 s at 30 μL/min; 10 mM HEPES pH 7.4, 150 mM NaCl, 3.4 mM EDA, 0.005% Tween 20

Chain of M. musculus LNK SH2 domain (residues 324–446), wild type (mouse) (O09039 324-446): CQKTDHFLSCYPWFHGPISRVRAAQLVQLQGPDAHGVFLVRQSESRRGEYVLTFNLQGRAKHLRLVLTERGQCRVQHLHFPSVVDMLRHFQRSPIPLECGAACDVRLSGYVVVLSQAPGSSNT

Substance | IC50 [1] [nM] | also measured
JAK2 pY813 peptide mutant +1A | 430 | –
JAK2 pY813 peptide mutant +3F | 1430 | –
JAK2 pY813 peptide mutant +4A | 90 | –
JAK2 pY813 peptide mutant +5A | 300 | –
JAK2 pY813 peptide mutant −1A | 150 | –
M. musculus LNK SH2 domain R387C (from UniProt O09039 325-438) (domain or fragment) | – | fold loss in affinity relative to the WT SH2 domain [2]: 3 fold
M. musculus LNK SH2 domain R387H (from UniProt O09039 325-438) (domain or fragment) | – | fold loss in affinity relative to the WT SH2 domain [2]: 10 fold
mouse SH2B SH2 domain (from UniProt Q91ZM2 527-625) (domain or fragment) | – | Kd [2]: 100 nM
